Data as given in article PMC2678197 (2009).
Where no end group is shown, it is not given here. [ ]: non-standard residue; d: D form. sY = N[C@@H](Cc1ccc(OS(=O)(=O)O)cc1)C(=O)O

Tests used:
Assay in all cases: NMR
CCR3 peptide Su16 8-23 = biological target: T1, CCR3 peptide Su16 8-23 (Homo sapiens, UniProt P51677)
T1 chain: VETFGTTS[sY]YDDVGLL

CCR3 peptide Su0 8-23 = biological target: T2, CCR3 peptide Su0 8-23 (Homo sapiens, UniProt P51677)
T2 chain: VETFGTTSYYDDVGLL

CCR3 peptide Su17 8-23 = biological target: T3, CCR3 peptide Su17 8-23 (Homo sapiens, UniProt P51677)
T3 chain: VETFGTTSY[sY]DDVGLL

Kd (CCR3 peptide Su16 8-23): < 5 µM
Kd (CCR3 peptide Su0 8-23): 140 µM
Kd (CCR3 peptide Su17 8-23): 22 µM
B1: eotaxin (protein)
chain: not shown
